Source: US20240042051A1, “MCL-1 INHIBITOR ANTIBODY-DRUG CONJUGATES AND METHODS OF USE” (Novartis AG, priority 2020, published 2024)

How the values were obtained:
2249 (Homo sapiens) = 2249 (Homo sapiens) (UniProt P09326); experiment: ELISA, HEK293T culture supernatant (1:10) with the CD48-mouse Ig construct, antibody at 25, 250 and 500 ng/mL, detection goat anti-mouse IgG (H+L) HRP, Mean OD450-570
[1] = biological target: hCD48EC:mouse-Ig (non-mutated human CD48-mouse IgG1 fusion protein) (human) (UniProt P09326); experiment: as above
Chain of hCD48EC:mouse-Ig (non-mutated human CD48-mouse IgG1 fusion protein) (human) (P09326 27-220, stated change not applied): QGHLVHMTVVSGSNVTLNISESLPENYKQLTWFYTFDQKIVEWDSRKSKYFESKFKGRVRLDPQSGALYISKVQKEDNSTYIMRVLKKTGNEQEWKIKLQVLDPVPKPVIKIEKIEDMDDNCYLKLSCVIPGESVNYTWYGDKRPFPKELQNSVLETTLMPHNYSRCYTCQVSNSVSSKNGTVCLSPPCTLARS

[2] = biological target: Cynomolgus Monkey CD48 (recombinant, CynoCD48 aa29-217) (cynomolgus monkey (Macaca fascicularis)); experiment: SPR Biacore T200, antibody captured on protein A chip, CD48 as analyte, 25 °C, 1:1 model

Chain of 2249 (Homo sapiens) (P09326 27-220): as the sequence (P09326 27-220, stated change not applied) above

Row | EC50 (read off the curve) (2249 (Homo sapiens)) [µg/mL] | EC50 (read off the curve) [1] [µg/mL] | Kd [2] [nM] | koff [2] [s⁻¹] | kon [2] [M⁻¹ s⁻¹] | Binder
1 | 0.03 | 0.02 | – | – | – | humanized CD48A (antibody, V domains shown) VH: QVQLVQSGSELKKPGASVKVSCKASGYTFTDFGMNWVRQAPGQGLEWMGWINTFTGEPSYGNVFKGRFVFSLDTSVSTAYLQISSLKAEDTAVYYCARRHGNGNVFDSWGQGTLVTVSS VL: EIVLTQSPDFQSVTPKEKVTITCRASQSIGSNIHWYQQKPDQSPKLLIKYTSESISGVPSRFSGSGSGTDFTLTINSLEAEDAATYYCQQSNSWPLTFGGGTKVEIKR
2 | – | – | 1.5 | 0.00037 | 250000 | NY938 (antibody, human IgG1, kappa, V domains shown) VH: QVQLVQSGAEVKKPGASVKVSCKASGYTFTEYTMHWVRQAPGQGLEWMGGINPDTGDTSYNQKFTGRATLTVDKSTSTAYMELSSLRSEDTAVYYCARAQFWTTPRFAYWGQGTLVTVSS VL: DIQMTQSPSSLSASVGDRVTITCKASQDVGTAVAWYQQKPGKVPKLLIYWASTRHTGVPSRFSGSGSGTDFTLTISSLQPEDVATYYCQQYSTYPITFGQGTKLEIKR
